The results in this text go back to article PMC10328077.

Test [1] concerns the target NT647-labeled apoE2(1–165) fragment (human). Put plainly: MST; labelled apoE2(1-165) at 2.8 nM held constant, FH402H, FH402Y, FH1-4 or FH19-20 titrated; n = 3; Kd fit model of normalized (ΔFnorm) values; 150 mM KCl, 25 mM HEPES pH 7.5, 0.01% Tween 20, 0.01% NaN3.
Test [2] deals with NT647-FH5-7 402Y (human) (UniProt P08603). Put plainly: MST; NT647-FH5-7 402Y at 35 nM held constant, apoE2, apoE3 or apoE4 titrated; n = 3; Kd fit model of normalized (ΔFnorm) values; 150 mM KCl, 25 mM HEPES pH 7.5, 0.01% Tween 20, 0.01% NaN3.
Test [3] deals with complement factor H (FH), NT647-labeled full-length FH (human) (UniProt P08603). Put plainly: MST; FH at 2 nM held constant (NT647-labelled by the legend of Fig 1I), native apoE2 or native apoE4 titrated; n = 3; Kd fit model of normalized (ΔFnorm) values; 150 mM KCl, 25 mM HEPES pH 7.5, 0.01% Tween 20, 0.01% NaN3.
complement factor H (FH), NT647-labeled full-length FH (human), sequence (P08603 19-1231): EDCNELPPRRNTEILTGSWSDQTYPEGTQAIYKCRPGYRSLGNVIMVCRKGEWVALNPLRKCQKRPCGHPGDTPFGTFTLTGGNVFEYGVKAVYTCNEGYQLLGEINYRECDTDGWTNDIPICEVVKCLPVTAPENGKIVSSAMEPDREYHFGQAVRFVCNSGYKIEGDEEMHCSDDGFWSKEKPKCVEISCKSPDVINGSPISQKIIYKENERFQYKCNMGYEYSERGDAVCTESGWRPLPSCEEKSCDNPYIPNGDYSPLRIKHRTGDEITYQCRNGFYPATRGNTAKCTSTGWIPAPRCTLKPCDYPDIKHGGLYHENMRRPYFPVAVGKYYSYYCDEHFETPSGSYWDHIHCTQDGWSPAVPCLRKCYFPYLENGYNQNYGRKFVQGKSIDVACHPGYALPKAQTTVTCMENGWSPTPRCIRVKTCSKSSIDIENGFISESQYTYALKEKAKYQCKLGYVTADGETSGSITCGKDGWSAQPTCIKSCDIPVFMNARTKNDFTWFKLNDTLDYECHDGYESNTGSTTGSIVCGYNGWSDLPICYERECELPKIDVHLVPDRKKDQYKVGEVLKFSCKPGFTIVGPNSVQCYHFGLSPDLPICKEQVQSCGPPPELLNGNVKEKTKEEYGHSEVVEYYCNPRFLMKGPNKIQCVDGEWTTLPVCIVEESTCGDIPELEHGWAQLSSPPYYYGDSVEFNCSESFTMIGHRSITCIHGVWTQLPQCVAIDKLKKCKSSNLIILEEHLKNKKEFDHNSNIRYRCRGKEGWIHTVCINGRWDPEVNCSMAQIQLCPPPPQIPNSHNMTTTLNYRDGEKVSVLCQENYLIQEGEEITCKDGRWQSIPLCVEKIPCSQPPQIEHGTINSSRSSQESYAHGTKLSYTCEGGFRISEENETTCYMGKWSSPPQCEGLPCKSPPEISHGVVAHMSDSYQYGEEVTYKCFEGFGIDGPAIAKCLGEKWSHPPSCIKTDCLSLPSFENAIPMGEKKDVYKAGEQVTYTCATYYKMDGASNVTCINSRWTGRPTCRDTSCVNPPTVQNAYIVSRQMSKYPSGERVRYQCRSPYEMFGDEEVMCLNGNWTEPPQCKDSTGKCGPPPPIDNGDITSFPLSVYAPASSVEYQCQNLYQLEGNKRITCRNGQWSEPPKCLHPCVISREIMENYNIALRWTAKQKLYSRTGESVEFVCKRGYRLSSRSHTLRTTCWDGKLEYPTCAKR

NT647-FH5-7 402Y (human), sequence (P08603 19-1231): as above
FH402H, sequence (P08603 19-1231 Y402H): as the sequence (P08603 19-1231) above, with Y384H counted along it
FH402Y, sequence (P08603 19-1231): as the sequence (P08603 19-1231) above

As a reminder, the Kd is the concentration at which binding is half-saturated. High values mean a looser complex, low ones a tighter complex. Substance FH1-4 (domain or fragment) displayed a dissociation constant Kd in test [1] of 999 nM.
On the same count and under the same terms, for “FH402H (from UniProt P08603 19-1231) (natural protein)” the value was 496 nM; for “FH402Y (from UniProt P08603 19-1231) (natural protein)”, 253 nM.
“apoE2 (from UniProt P02649 19-317) (natural protein)”: the Kd in test [2] is 1000 nM.
On the same count and under the same terms, for “apoE3 (from UniProt P02649 19-317) (natural protein)” the value was 1380 nM.
Same read-out and setting: for “apoE4 (from UniProt P02649 19-317) (natural protein)” the value was 1940 nM.
In test [3], “native apoE2 (from UniProt P02649 19-317) (natural protein)” had a Kd of 2 nM.
Still for that read-out and setting: for “native apoE4 (from UniProt P02649 19-317) (natural protein)” the value was 300 nM.
